Data: publication PMC8227597

Target: Biotinylated human ACE2 (angiotensin-converting enzyme 2) (human) (UniProt Q9BYF1)
Experiment: SPR

Trimer spike of SARS-CoV-2, furin cleavage site deleted and two stabilizing mutations, C-terminal His-tag (domain or fragment)
Kd: 700 pM
